Reference: the DeepSol protein solubility set

assay: soluble on expression in E. coli; label from the status in PepcDB or PDB records

Sequence	soluble on expression in E. coli
MGSDKIHHHHHHMNIFQQLEHSKAPAAVRLVMVIDYIAKRDEASFTEICTDLSIPKSSVHHLLEVLVVTQLLRQRADGRYVLGLRLFELGGLVIKNIDLRKDTINFMHELVKETELTCHLGIMDGDNGFFLSKVESPKAIVKTSWEGKKIVFNRMSLGKVLVAWLPQERIESLIADCSFEYLTPRTITNKDDFLQHLKTVKEQGWAIDDGEDIEEICCMAAPIFNQNGDVIAAIGVNGMQSQYANGKKEKHLASLIKTSKAITAHINSRNIDIR	not soluble
MQQANLGDGVATARLLSRSDWGARLPKSVEHFQGPAPYVIIHHSYMPAVCYSTPDCMKSMRDMQDFHQLERGWNDIGYSFGIGGDGMIYTGRGFNVIGAHAPKYNDKSVGIVLIGDWRTELPPKQMLDAAKNLIAFGVFKGYIDPAYKLLGHRQVRDTECPGGRLFAEISSWPHFTHINDTEGVSSTTAPVVPHVHPQAAAPQKPHQSPPAAPKV	soluble
MAHHHHHHSTLRHSHEPSPYVQKGEDLSGQKLTPTIKSYRNMEFLNSYSGRMIRILCEFEEPKQRLQQHFIRTTVLFFGSARSMTQAQYDSTVQDIHSKLAAATDDSTKASLQNKLACLKKTQWMCKWVDVVENLARMVAEFSQKEQDMIIRSFRHIPDYFRLTPEDGSESLDDLQKRFHDLVVTTGGGPGFMEAANHGAESVPGAVTMGMGISLPFENGLNPHVTKGLAFEFHYFFTRKFWMMYSCRAIVIAPGGFGTLDEMFELLTLKQTKKIPSLPVVLLGKEFWQTVVNWQALANYGVISQEEIDSLLFTDSAEEAVEHIKDFYHRLASDSPSTE	soluble
SLSTKNHFIFPTYVQMYPYSKDRPFLKQVREKLRYYGYKWLYQKQCSQLVDFLNTETQWQSLFTQDYYRTNTILTTFCDKRFSASERLTAITENLRLAEEKMGRSLCQQLLDQQHIVLTQLTEDLRLSLSINHIDPFEGYFSINIRNQNNERVYDSSFTFLSPNKLLIASIQGPSSDNAQELVKQATKALHGMRPMFMLVNGFKMLAEKWQCELVGIPHKAQGKYRLSARSKILFNYDEFWQENQGEYRHNYWQLPLHIERKQLEDIASKKRSMYRKRYEMLDQMALDIQQL	not soluble
MGSDKIHHHHHHMNPDFSYEKKKIEFSSGYIFKGKHYRCSIIKYASLYKNCTKGTENVEIYHFSPRERSVGSILILHGLGTVNIPFLFWMGSHLASAGLQASVMILPGNYTRTASGSTSGKDFFSPDLRRLTAFWEQAVVDTMTTIDLLQQENIWWDNNCLFGYCLGGMVSTIVSAIDKRINDLILMTVGGNIAKIIWQSPVLKSIRLSLRSGSGEEGYLNDEKRLNARFKEDSLAVKKMKSASELLESDLHPLFKIDPLAYARFNDSEKVTMIEALFDKALPVQTRKQLWEAFGRPKRYIVPIGHVSWFPFEYALGKYILKKLGIKEARKKMRLLESTKPTE	not soluble
MIVIFVHGWSVTHTNTYGELPQWLENQSKQGKLDIQVGNIYLGRYISFDDTVTVDDIARAFDQAVRDEIAAKVKDGQRFACITHSTGGPIVRKWMDLYFKNNLAKCPLSHLIMLAPANHGSALAQLGKSRLGRIKSFFEGIEPGKCVLDWLELGSDMSWQLNESWLDYDCTANGVYSFVLTGQKIDRQLYDAVNSYTGESGSDGVVRVAATNMNYSLLKLHQEGDNGESLVVAKMTRTQPMAFGVLPGLSHSGKNIGIIRSITMANAATHPTAIWVLRCLQVKSRDSYNKLVKELDNITKETQKNEHKEFVKTLVFTREYITNRYSMIIFRLIDDRGNHLIDYDLYLTAGPQYSEQALPAGFFVDRQRNLNNRGKLTYFLDYDIMEGGINTPKMQGNLGFRVKAYPESSEQALAYYRLLDFHSSLADIHKILHPNETVMVEIMLQRRVDKTVFRINNNLTPAKISGKPTGKKID	not soluble
PVLFLALPALAQERKKVGVVLSGGGAKGVAHIQALKVIEEAGIPIDYIVGTSMGSIIGGLYSIGYTPQQLDSMVRKQDWMFLLSDRVKRSAMSLNEREKSEKYVFSFPFTKSPKDAVSGGIIKGQNLANLFTELTVGYHDSVDFNKLPIPFACVSQNIVNGEQIVFHNGILATAMRASMAIPGVFTPVRKDSMILIDGGMINNYPVDVARSMGADIIIGVDVQNNLKGID	not soluble
MGSDKIHHHHHHMKKSERLNQELFFLRTHPQFNLNQLMKTFGISKSTALRDIEALENLGVPLYVENGRYGGYRVLNKPLLPPIYFNENEVLAIFFSLQLLKLVAESPFGHSYQQIKQKLLHSLDEPTQFKISQMSKVVYYEGIEQVEAPGNLEQLFHCILAQQVIQFNYTRYEATTKKILPTRLTILEGYWYCSGYDVTKKAWRTYRCDFMEAIQQLNQTLDFTTEELKESYRHQQTTARTIPFKAIITEKGKEFFYKHRFDNIQLEETPTQCFLVGQIHPTETQFLANYFMGFGEEVTILDPVQVKQAYVESIMRIQKKYQE	not soluble
MGSDKIHHHHHHMSMVSSGNYAEVEKVLTEYPYIAELADHLRDQKMKVIENLDSYVSLTIKNVERLGGHAYLAKDKEEARKIAGDLVGDNKTVVFSKTNVAYEIGLREYLESKHNEVWETDLGEYLIQISKGWPTHIVAPALGMTREDAAKAVKKIDPSINENSTIEDVVAAVRKFLMSKYVKADVGITGANAVAADSGAIALVENEGNIRIDTVMPQTHISITGIDKIVPTLRDALDEVMVQSAYAGLFPPTYINVTAGPSSTADIELRRVSPATGPKNFHLILLDDGRMDASKDEGLKEALLCIKCGRCYFSCPIYRVLGKEWVSTKSPYNGPTGVMWNYITNKDPWPASYCVHSGGCKEVCPMRINIPEVIKYIKYLGSKSL	not soluble
APLKLYGMPLSPNVVRVATVLNEKGLDFEIVPVDLTTGAHKQPDFLALNPFGQIPALVDGDEVLFESRAINRYIASKYASEGTDLLPATASAAKLEVWLEVESHHFYPNASPLVFQLLVRPLLGGAPDAAVVDKHAEQLAKVLDVYEAHLARNKYLAGDEFTLADANHASYLLYLSKTPKAGLVAARPHVKAWWEAIVARPAFQKTVAAIPLPPPP	soluble
MSTVVDRLQRMTLNLTSPDGNLCATVDAERRARFHLRDETRFERYDAPTLSTQVKALLTTMNSGRELGIKRAYAADGREPAAVNGTHWDAAHRRFEAALATLELEGYSEDGLLLLQSGFDLSGYRVTIDRDDLPRTSPEQFLRELSGAYRDLLAHRRQRRAELLREHLGT	not soluble
MTDRRQYAPATQRNRETIAAVLQEYLPSQGSILEIASGTGEHACFFAPLFSPRWWITSDPDPLCRESIMAWRDHQALANFQSPLDLDVNDQVWPVEREILREPVTSIVAINLIHISPWESCLGLLTGAERILPEGGILYLYGPYRQKGVPTAPSNEAFDQSLQSRNPAWGLRQLEDVIGEAGKRNLHNQAIIPMPANNLSVIFQKGLEHHHHHH	not soluble
MPVEHLDVLIVGAGLSGVGAAYHLMKHCPGKSFALLEGRAAMGGTWDLFRYPGIRSDSDMFTLGYNFKPWSDPKAIADGPSIRRYIEETARENGIDRKIRYRHRVLRADWDSANARWNLDVQRGDEPEPLRMTAQFLLMCTGYYRYEAGYTPEFVGREDFAGQVVHPQLWPEDLDYSGKKVVVIGSGATAVTLVPSLTDKAAHVTMLQRSPSYVITLPQKDAISNFLRRFLPETWIYRQARARNVAMQMVFFMLARTFPGLVRKALLKLASLQLGKRFDIRHFSPRYKPWDERVCAVPDGDLFKVLRKGKASVVTEHIDRFVERGIRLKTGEVLEADIIVTATGLDLVMFGGAELAVDGKPFLVNQSMGYRGIMLRDLPNLAAVVGYTNASWTLKADLSSEYFCRLINHMDATGMRQVTARDSTGDVREEPFLNLDSGYIQRAAERMPKQGDRMPWKLYQNYVLDLALLRYGKVEDGYLVFSSPAPQRQAGGAAVQALGLEHHHHHH	not soluble
MIPMSETKNELEILLEKAATEPAHRPAFFRTLLESTVWVPGSAAEGEAIVEDSALDLQHWEKEDGTTVIPFFTSLEALQQAVEDEQAFVVMPARTLFEMTLGETLFLNAKLPTGKEFMPREISLLLAEEGSPLSTQEVLEGGESLILSEVAEPPSQMIDSLTTLFKTIKPVKRAFLCAIKEHADAQPNLLIGIEADGEIEEIIHAAGNVATDTLPGDEPIDICQVRKGEQGISHFITEHIAPFYERRWGGFLRDFKQNRII	not soluble
MSILVYDREHNFKKWYIYWIPKTKMLGVKDDKDVVYEKMCTLQERTDILKVSKSLVEEKWSSLFSESGLHIEEVCEKELVLTFALQRNITLERTELSGRFDECLYLEYLRLKTLTNVSPMKRKRTASTVEHVIRSDDIKPILAPKSDPVKKRTTRMAAKASGPEFDDE	not soluble
MKQEVEKWRPFKHPDGDVRDLSFLDAHQVIYVQHHEDKEPLEYRFWVTYSLHCFTKDYEHQTNEEKLSLMYHAPKESRPFCQHRYNLARTHLKRTILALPESNVIHAGYGSYAVIEVDLDGGDKAFYFVVFRAFSEIFHHCLKLIEK	not soluble
MAVSDSQNSQTCLDPDASRSVLGIILGGGAGTRLYPLTKKRAKPAVPLGANYRLIDIPVSNCLNSNISKIYVLTQFNSASLNRHLSRAYASNMGGYKNEGFVEVLAAQQSPENPDWFQGTADAVRQYLWLFEEHTVLEYLILAGDHLYRMDYEKFIQAHRETDADITVAALPMDEKRATAFGLMKIDEEGRIIEFAEKPQGEQLQAMKVDTTILGLDDKRAKEMPFIASMGIYVISKDVMLNLLRDKFPGANDFGSEVIPGATSLGMRVQAYLYDGYWEDIGTIEAFYNANLGITKKPVPDFSFYDRSAPIYTQPRYLPPSKMLDADVTDSVIGEGCVIKNCKIHHSVVGLRSCISEGAIIEDSLLMGADYYETDADRKLLAAKGSVPIGIGKNCHIKRAIIDKNARIGDNVKIINKDNVQEAARETDGYFIKSGIVTVIKDALIPSGIII	soluble
MSLATAAPFVSDQAEAKGFVEGSTLDLKLRNYYYNRDRKNNPAPGGRSDKDWTQGIWANFSTGYTQGTIGVAAEAFGYGALRLWGPDKYSGSGNLVTDSNGDNEATQGKFGGAVKFRVSKTELKVGDMQPTSPVFAVGGSRILPQTASGLSLQSSEIAGLDLEAGHFYSGTSQDDTSHNGSIWATYANGFNGLKANSADFLGGKYAITDGLGVAFYAAKLEDIWDQYYGNVNYALPLGNDQSLAFDVNLYRTLDEGSSKADSINNTTYSASAAYSFLAAHTVTVAYQKVDGDTPFDYIGIGDNNRGGDSIFLANSVQYSDFNGPGEKSWQIRYDLNMTPYGVPGLSFMTRYLNGDNIDGTKVDASSLYANMYGADGKHHETNLEAKYVVQAGPAKDLSFRMRQAWHRGNDAQSDGDVNEFRLIVDYPISILKGIITITTDPNSSSVDKLAAALEHHHHHH	soluble
MGSDKIHHHHHHMKILYISNFNLPDFQNDMIFHGLRSVFGNDCIDSNEAWYMYEDFRNYWNVRVPENGMSYGRGFTLYGKLPKIDIDRKNIYEKIKDKYFDKIVYGSITRNNMFLDEVISIYEKNNIIMIDGEDNTEINQNFFGKGIYFKRELIYEPTSYLKPIGFCIPNETIVNNISIKEKDYGHVIPGDPETYIYTDEVSYFEDYRKSYFGVTMKKGGWDCLRHYEILMNGCIPYFLNLEQCPKYTMTHFPKNIILDVINKINTESNILNFYNEYVDILLEYTRNKLTTRKVIESIL	not soluble
MNYMPGTASLIEDIDKKHLVLLRDGRTLIGILRSIDQFANLVLHQTVERIHVGKKFGDIPRGIFVVRGENVVLLGEVDLDKECDQILQRVSIEEILEEQRTEQQAKQESERLKLQAVKERGLSIPKADTLDDF	soluble
